Laboratory results from patent US20060257938A1, “Method of screening for drugs that block ligand binding to a lipid binding protein” (priority 2005, published 2006).
Where a chain is given by its changes, count along the chain named. Where “and” joins values, the source holds several entries; their conditions need not be identical. Equal values may be shown once.

B1: 34W, 72A (protein, listed as Rattus norvegicus)
chain: AFDGTWKVDRNENYEKFMEKMGINVVKRKLGAHWNLKLTITQEGNKFTVKESSNFRNIDVVFELGVDFAYSAADGTELTGTWTMEGNKLVGKFKRVDNGKELIAVREISGNELIQTYTYEGVEAKRIFKKE
modifications: PEPTIDE (1)...(131) wild-type rat intestinal fatty acid binding protein
B2: 36F1, 72A (protein, listed as Rattus norvegicus)
chain: B1 chain with W34D, L36F
modifications: PEPTIDE (1)...(131) wild-type rat intestinal fatty acid binding protein
B3: 36E2, 72A (protein, listed as Rattus norvegicus)
chain: B1 chain with W34D, L36E
modifications: PEPTIDE (1)...(131) wild-type rat intestinal fatty acid binding protein
B4: 36C3, 72A (protein, listed as Rattus norvegicus)
chain: B1 chain with W34D, L36C
modifications: PEPTIDE (1)...(131) wild-type rat intestinal fatty acid binding protein
B5: 34Y, 72A (protein, listed as Rattus norvegicus)
chain: B1 chain with W34Y
modifications: PEPTIDE (1)...(131) wild-type rat intestinal fatty acid binding protein
B6: 36A, 72A (protein, listed as Rattus norvegicus)
chain: B1 chain with W34D, L36A
modifications: PEPTIDE (1)...(131) wild-type rat intestinal fatty acid binding protein
B7: 36D1, 72A (protein, listed as Rattus norvegicus)
chain: B1 chain with W34D, L36D
modifications: PEPTIDE (1)...(131) wild-type rat intestinal fatty acid binding protein
B8: 36G2, 72A (protein, listed as Rattus norvegicus)
chain: B1 chain with W34D, L36G
modifications: PEPTIDE (1)...(131) wild-type rat intestinal fatty acid binding protein

Assay: Probe fluorescence ratio response to oleic acid relative to ADIFAB2
Assay type: binding
Details: response relative to ADIFAB2
Outline: (§1)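 Fluorescently labeled rat intestinal FABP variants were read at two emission wavelengths, near the unbound maximum (about 420 to 480 nm) and the FFA-bound maximum (about 495 to 580 nm). R = Fλ1/Fλ2 after subtracting probe-free intensity; ΔR = R+agent − R0, normalized to ADIFAB2 (rI-FABP-L72A).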

Question: Which “DR/DR OA” value does the source give for B1 here?
Answer: 1.38 and 1.210

Question: With B2 as the molecule, how does the “DR/DR OA” value read?
Answer: 0.55

Question: For B3, which “DR/DR OA” value is on record?
Answer: 0.20

Question: For B4, which “DR/DR OA” value is on record?
Answer: −0.40

Question: With B5 as the molecule, how does the “DR/DR OA” value read?
Answer: 1.19

Question: For B6, which “DR/DR OA” value is on record?
Answer: 0.46

Question: With B7 as the molecule, how does the “DR/DR OA” value read?
Answer: 0.20

Question: Which “DR/DR OA” value does the source give for B8 here?
Answer: 0.97

Assay: Probe fluorescence ratio response to linolenic acid relative to ADIFAB2
Assay type: binding
Details: response relative to ADIFAB2
Outline: as §1

Question: Which “DR/DR LNA” value does the source give for B1 here?
Answer: 1.37 and 1.130

Question: With B2 as the molecule, how does the “DR/DR LNA” value read?
Answer: 0.66

Question: Which “DR/DR LNA” value does the source give for B3 here?
Answer: 0.23

Question: For B4, which “DR/DR LNA” value is on record?
Answer: −0.30

Question: With B5 as the molecule, how does the “DR/DR LNA” value read?
Answer: 1.22

Question: Which “DR/DR LNA” value does the source give for B6 here?
Answer: 0.50

Question: For B7, which “DR/DR LNA” value is on record?
Answer: 0.21

Question: With B8 as the molecule, how does the “DR/DR LNA” value read?
Answer: 1.16

Assay: Probe fluorescence ratio response to arachidonic acid relative to ADIFAB2
Assay type: binding
Details: arachidonic acid; response relative to ADIFAB2
Outline: as §1

Question: For B1, which “DR/DR AA” value is on record?
Answer: 1.31 and 1.060

Question: For B2, which “DR/DR AA” value is on record?
Answer: 0.66

Question: With B3 as the molecule, how does the “DR/DR AA” value read?
Answer: 0.24

Question: Which “DR/DR AA” value does the source give for B4 here?
Answer: −0.22

Question: With B5 as the molecule, how does the “DR/DR AA” value read?
Answer: 1.22

Question: Which “DR/DR AA” value does the source give for B6 here?
Answer: 0.53

Question: Which “DR/DR AA” value does the source give for B7 here?
Answer: 0.20

Question: For B8, which “DR/DR AA” value is on record?
Answer: 1.00

Assay: Probe fluorescence ratio response to linoleic acid relative to ADIFAB2
Assay type: binding
Details: response relative to ADIFAB2
Outline: as §1

Question: For B1, which “DR/DR LA” value is on record?
Answer: 1.34 and 1.110

Question: For B2, which “DR/DR LA” value is on record?
Answer: 0.67

Question: For B3, which “DR/DR LA” value is on record?
Answer: 0.25

Question: With B4 as the molecule, how does the “DR/DR LA” value read?
Answer: −0.36

Question: With B5 as the molecule, how does the “DR/DR LA” value read?
Answer: 1.24

Question: For B6, which “DR/DR LA” value is on record?
Answer: 0.51

Question: Which “DR/DR LA” value does the source give for B7 here?
Answer: 0.27

Question: With B8 as the molecule, how does the “DR/DR LA” value read?
Answer: 1.17

Assay: Probe fluorescence ratio response to palmitic acid relative to ADIFAB2
Assay type: binding
Details: response relative to ADIFAB2
Outline: as §1

Question: For B1, which “DR/DR PA” value is on record?
Answer: 0.93 and 0.920

Question: Which “DR/DR PA” value does the source give for B2 here?
Answer: 0.52

Question: For B3, which “DR/DR PA” value is on record?
Answer: 0.19

Question: With B4 as the molecule, how does the “DR/DR PA” value read?
Answer: −0.21

Question: For B5, which “DR/DR PA” value is on record?
Answer: 1.06

Question: Which “DR/DR PA” value does the source give for B6 here?
Answer: 0.46

Question: For B7, which “DR/DR PA” value is on record?
Answer: 0.18

Question: For B8, which “DR/DR PA” value is on record?
Answer: 0.55
